Reference: patent US20060105444

Columns and labels:
[1] = biological target: human Factor IX EGF domain mutant EGF.AA (UniProt P00740)
[2] = biological target: human Factor IX EGF domain mutant EGF.AG (UniProt P00740)
[3] = biological target: human Factor IX EGF domain (wild type) (UniProt P00740)
[4] = biological target: human Factor IX EGF domain mutant EGF.GA (UniProt P00740)
Chain of human Factor IX EGF domain mutant EGF.GA (P00740 other isoform, or with tags, fused parts or gaps mutant): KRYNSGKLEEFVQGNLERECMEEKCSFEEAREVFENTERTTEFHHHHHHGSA

Chain of human Factor IX EGF domain mutant EGF.AA (P00740 other isoform, or with tags, fused parts or gaps mutant): as above
Chain of human Factor IX EGF domain mutant EGF.AG (P00740 other isoform, or with tags, fused parts or gaps mutant): as above
Chain of human Factor IX EGF domain (wild type) (P00740 other isoform, or with tags, fused parts or gaps): as the sequence (P00740 other isoform, or with tags, fused parts or gaps mutant) above

For “O-fucosyltransferase purified from CHO cells”, the Fucose (cpm) [1] was 1820 cpm, the “RP-HPLC with electrospray mass spectrometry of the fucosylation product” value [1] was “only one of the four differently folded species served as an acceptor substrate for the O-fucosyltransferase” and the Fucose (cpm) [2] was 4580 cpm. For the same substance, the Fucose (cpm) [3] was 12100 cpm and the Fucose (cpm) [4] was 6480 cpm.
